What was measured:
Experiment in all cases: BLI (Octet), binder on AHC sensor, 100 nM human antigen, 1:1 fit
[1] = target: T1, human CD3 (human, UniProt P07766 23-126; P04234 22-105)
T1 construct: also called His-tagged human CD3; human CD3 (Acro CDD-H52W1)

[2] = target: T2, human HER3 (human, UniProt P21860 20-643)
T2 construct: Soluble antigen in Octet; bought; also called human HER3 (Acro ER3-H5223)

[3] = target: T3, human EGFR (human, UniProt P00533 25-645, limits assumed)
T3 construct: Soluble antigen in Octet; construct not described

| Binder | Kd [1] [nM] | Kd [2] [nM] | Kd [3] [nM] |
| --- | --- | --- | --- |
| SI-75X3 (other, tri-miniGNC; D1 αEGFR, D2 αHER3, D3 αCD3 (Fab); also called tri-miniGNC (SI-75X3)) chain 1: EIVLTQSPSTLSVSPGERATFSCRASQSIGTNIHWYQQKPGKPPRLLIKYASESISGIPDRFSGSGSGTEFTLTISSVQSEDFAVYYCQQNNNWPTTFGPGTKLTVLGGGGSGGGGSGGGGSGGGGSQVQLQQSGPGLVKPSETLSITCTVSGFSLTNYGVHWIRQAPGKGLEWLGVIWSGGNTDYNTPFTSRFTITKDNSKNQVYFKLRSVRADDTAIYYCARALTYYDYEFAYWGQGTLVTVSSGGGGSGGGGSEVQLVESGGGLVQPGGSLRLSCAASGFTISTNAMSWVRQAPGKGLEWIGVITGRDITYYASWAKGRFTISRDNSKNTLYLQMNSLRAEDTAVYYCARDGGSSAITSNNIWGQGTLVTVSSASTKGPSVFPLAPSSKSTSGGTAALGCLVKDYFPEPVTVSWNSGALTSGVHTFPAVLQSSGLYSLSSVVTVPSSSLGTQTYICNVNHKPSNTKVDKRVEPKSCDKTHTCPPCPAPEAAGGPSVFLFPPKPKDTLMISRTPEVTCVVVDVSHEDPEVKFNWYVDGVEVHNAKTKPREEQYNSTYRVVSVLTVLHQDWLNGKEYKCAVSNKALPAPIEKTISKAKGQPREPQVYTLPPSRDELTKNQVSLSCAVKGFYPSDIAVEWESNGQPENNYKTTPPVLDSDGSFFLVSKLTVDKSRWQQGNVFSCSVMHEALHNHYTQKSLSLSPG chain 2: QSALTQPASVSGSPGQSITISCTGTSSDVGGYNFVSWYQQHPGKAPKLMIYDVSDRPSGVSDRFSGSKSGNTASLIISGLQADDEADYYCSSYGSSSTHVIFGGGTKVTVLGGGGSGGGGSGGGGSGGGGSQVQLQESGGGLVKPGGSLSLSCAASGFTFSSYWMSWVRQAPGKGLEWVANINRDGSASYYVDSVKGRFTISRDDAKNSLYLQMNSLRAEDTAVYYCARDRGVGYFDLWGRGTLVTVSSGGGGSGGGGSDVVMTQSPSTLSASVGDRVTINCQASESISSWLAWYQQKPGKAPKLLIYEASKLASGVPSRFSGSGSGTEFTLTISSLQPDDFATYYCQGYFYFISRTYVNSFGGGTKVEIKRTVAAPSVFIFPPSDEQLKSGTASVVCLLNNFYPREAKVQWKVDNALQSGNSQESVTEQDSKDSTYSLSSTLTLSKADYEKHKVYACEVTHQGLSSPVTKSFNRGECGGDKTHTCPPCPAPEAAGGPSVFLFPPKPKDTLMISRTPEVTCVVVDVSHEDPEVKFNWYVDGVEVHNAKTKPREEQYNSTYRVVSVLTVLHQDWLNGKEYKCAVSNKALPAPIEKTISKAKGQPREPQVYTLPPSRDELTKNQVSLWCLVKGFYPSDIAVEWESNGQPENNYKTTPPVLDSDGSFFLYSKLTVDKSRWQQGNVFSCSVMHEALHNRFTQKSLSLSPG | 18.2 | 146 | 8.47 |
| SI-75X1 (bispecific antibody, human IgG1, kappa, L234A L235A, bi-miniGNC; D1 αEGFR, D3 αCD3 (Fab)) chain 1: EIVLTQSPSTLSVSPGERATFSCRASQSIGTNIHWYQQKPGKPPRLLIKYASESISGIPDRFSGSGSGTEFTLTISSVQSEDFAVYYCQQNNNWPTTFGPGTKLTVLGGGGSGGGGSGGGGSGGGGSQVQLQQSGPGLVKPSETLSITCTVSGFSLTNYGVHWIRQAPGKGLEWLGVIWSGGNTDYNTPFTSRFTITKDNSKNQVYFKLRSVRADDTAIYYCARALTYYDYEFAYWGQGTLVTVSSGGGGSGGGGSEVQLVESGGGLVQPGGSLRLSCAASGFTISTNAMSWVRQAPGKGLEWIGVITGRDITYYASWAKGRFTISRDNSKNTLYLQMNSLRAEDTAVYYCARDGGSSAITSNNIWGQGTLVTVSSASTKGPSVFPLAPSSKSTSGGTAALGCLVKDYFPEPVTVSWNSGALTSGVHTFPAVLQSSGLYSLSSVVTVPSSSLGTQTYICNVNHKPSNTKVDKRVEPKSCDKTHTCPPCPAPEAAGGPSVFLFPPKPKDTLMISRTPEVTCVVVDVSHEDPEVKFNWYVDGVEVHNAKTKPREEQYNSTYRVVSVLTVLHQDWLNGKEYKCAVSNKALPAPIEKTISKAKGQPREPQVYTLPPSRDELTKNQVSLSCAVKGFYPSDIAVEWESNGQPENNYKTTPPVLDSDGSFFLVSKLTVDKSRWQQGNVFSCSVMHEALHNHYTQKSLSLSPG chain 2: DVVMTQSPSTLSASVGDRVTINCQASESISSWLAWYQQKPGKAPKLLIYEASKLASGVPSRFSGSGSGTEFTLTISSLQPDDFATYYCQGYFYFISRTYVNSFGGGTKVEIKRTVAAPSVFIFPPSDEQLKSGTASVVCLLNNFYPREAKVQWKVDNALQSGNSQESVTEQDSKDSTYSLSSTLTLSKADYEKHKVYACEVTHQGLSSPVTKSFNRGECGGDKTHTCPPCPAPEAAGGPSVFLFPPKPKDTLMISRTPEVTCVVVDVSHEDPEVKFNWYVDGVEVHNAKTKPREEQYNSTYRVVSVLTVLHQDWLNGKEYKCAVSNKALPAPIEKTISKAKGQPREPQVYTLPPSRDELTKNQVSLWCLVKGFYPSDIAVEWESNGQPENNYKTTPPVLDSDGSFFLYSKLTVDKSRWQQGNVFSCSVMHEALHNRFTQKSLSLSPG | 24 | – | 8.11 |

More lines, in order of falling Kd [1], values ahead:

| Kd [1] [nM] | Kd [2] [nM] | Kd [3] [nM] | Binder |
| --- | --- | --- | --- |
| 44.4 | 139 | – | SI-75X5 (bispecific antibody, human IgG1, kappa, L234A L235A, bi-miniGNC, IgG1; D2 αHER3, D3 αCD3* (Fab); Chain B carries H435R/Y436F (Fc) and R19S (VH of the αHER3 scFv)) chain 1: QVQLQESGGRLVQPGEPLSLTCKTSGIDLSSNAIGWVRQAPGKGLEWIGVIFGSGNTYYASWAKGRFTISRSTSTVYLKMNSLRSEDTAIYYCARGGYSSDIWGQGTLVTVSSASTKGPSVFPLAPSSKSTSGGTAALGCLVKDYFPEPVTVSWNSGALTSGVHTFPAVLQSSGLYSLSSVVTVPSSSLGTQTYICNVNHKPSNTKVDKRVEPKSCDKTHTCPPCPAPEAAGGPSVFLFPPKPKDTLMISRTPEVTCVVVDVSHEDPEVKFNWYVDGVEVHNAKTKPREEQYNSTYRVVSVLTVLHQDWLNGKEYKCAVSNKALPAPIEKTISKAKGQPREPQVYTLPPSRDELTKNQVSLSCAVKGFYPSDIAVEWESNGQPENNYKTTPPVLDSDGSFFLVSKLTVDKSRWQQGNVFSCSVMHEALHNHYTQKSLSLSPG chain 2: QSALTQPASVSGSPGQSITISCTGTSSDVGGYNFVSWYQQHPGKAPKLMIYDVSDRPSGVSDRFSGSKSGNTASLIISGLQADDEADYYCSSYGSSSTHVIFGGGTKVTVLGGGGSGGGGSGGGGSGGGGSQVQLQESGGGLVKPGGSLSLSCAASGFTFSSYWMSWVRQAPGKGLEWVANINRDGSASYYVDSVKGRFTISRDDAKNSLYLQMNSLRAEDTAVYYCARDRGVGYFDLWGRGTLVTVSSGGGGSGGGGSDPQLTQSPSSLSATVGQRVTINCQSSQSVAKNNNLAWFQQKPGKPPKLLIYSASTLAAGVPSRFSGSGSGTQFTLTITRVQSEDFATYYCSARDSGNIQSFGGGTRVEIKRTVAAPSVFIFPPSDEQLKSGTASVVCLLNNFYPREAKVQWKVDNALQSGNSQESVTEQDSKDSTYSLSSTLTLSKADYEKHKVYACEVTHQGLSSPVTKSFNRGECGGDKTHTCPPCPAPEAAGGPSVFLFPPKPKDTLMISRTPEVTCVVVDVSHEDPEVKFNWYVDGVEVHNAKTKPREEQYNSTYRVVSVLTVLHQDWLNGKEYKCAVSNKALPAPIEKTISKAKGQPREPQVYTLPPSRDELTKNQVSLWCLVKGFYPSDIAVEWESNGQPENNYKTTPPVLDSDGSFFLYSKLTVDKSRWQQGNVFSCSVMHEALHNRFTQKSLSLSPG |
| 27.8 | 162 | – | SI-75X2 (bispecific antibody, human IgG1, kappa, L234A L235A, bi-miniGNC; D2 αHER3, D3 αCD3 (Fab); also called bi-miniGNC (SI-75X2)) chain 1: EVQLVESGGGLVQPGGSLRLSCAASGFTISTNAMSWVRQAPGKGLEWIGVITGRDITYYASWAKGRFTISRDNSKNTLYLQMNSLRAEDTAVYYCARDGGSSAITSNNIWGQGTLVTVSSASTKGPSVFPLAPSSKSTSGGTAALGCLVKDYFPEPVTVSWNSGALTSGVHTFPAVLQSSGLYSLSSVVTVPSSSLGTQTYICNVNHKPSNTKVDKRVEPKSCDKTHTCPPCPAPEAAGGPSVFLFPPKPKDTLMISRTPEVTCVVVDVSHEDPEVKFNWYVDGVEVHNAKTKPREEQYNSTYRVVSVLTVLHQDWLNGKEYKCAVSNKALPAPIEKTISKAKGQPREPQVYTLPPSRDELTKNQVSLSCAVKGFYPSDIAVEWESNGQPENNYKTTPPVLDSDGSFFLVSKLTVDKSRWQQGNVFSCSVMHEALHNHYTQKSLSLSPG chain 2: QSALTQPASVSGSPGQSITISCTGTSSDVGGYNFVSWYQQHPGKAPKLMIYDVSDRPSGVSDRFSGSKSGNTASLIISGLQADDEADYYCSSYGSSSTHVIFGGGTKVTVLGGGGSGGGGSGGGGSGGGGSQVQLQESGGGLVKPGGSLSLSCAASGFTFSSYWMSWVRQAPGKGLEWVANINRDGSASYYVDSVKGRFTISRDDAKNSLYLQMNSLRAEDTAVYYCARDRGVGYFDLWGRGTLVTVSSGGGGSGGGGSDVVMTQSPSTLSASVGDRVTINCQASESISSWLAWYQQKPGKAPKLLIYEASKLASGVPSRFSGSGSGTEFTLTISSLQPDDFATYYCQGYFYFISRTYVNSFGGGTKVEIKRTVAAPSVFIFPPSDEQLKSGTASVVCLLNNFYPREAKVQWKVDNALQSGNSQESVTEQDSKDSTYSLSSTLTLSKADYEKHKVYACEVTHQGLSSPVTKSFNRGECGGDKTHTCPPCPAPEAAGGPSVFLFPPKPKDTLMISRTPEVTCVVVDVSHEDPEVKFNWYVDGVEVHNAKTKPREEQYNSTYRVVSVLTVLHQDWLNGKEYKCAVSNKALPAPIEKTISKAKGQPREPQVYTLPPSRDELTKNQVSLWCLVKGFYPSDIAVEWESNGQPENNYKTTPPVLDSDGSFFLYSKLTVDKSRWQQGNVFSCSVMHEALHNRFTQKSLSLSPG |
